Sequences and labels used below:
T1: SinR (wild type), master repressor of biofilm-related genes (Bacillus subtilis, UniProt P06533 1-111)
T1 chain: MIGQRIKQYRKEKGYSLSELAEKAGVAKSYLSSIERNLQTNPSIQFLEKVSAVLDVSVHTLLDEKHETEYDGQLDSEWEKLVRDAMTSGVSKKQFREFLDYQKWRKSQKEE

T2: SinR-L99S variant (Bacillus subtilis, UniProt P06533 1-111, L99S)
T2 sequence: T1 chain with L99S

T3: SinR (Bacillus subtilis 168 (sequence …, UniProt P06533 1-111))
T3 sequence: T1 chain

T4: SinR-L99S (Bacillus subtilis 168 (sequence …, UniProt P06533 1-111, L99S))
T4 sequence: T1 chain with L99S

B1: SinR (wild type), master repressor of biofilm-related genes (natural protein, Bacillus subtilis)
chain: T1 chain
notes: SinR of Bacillus subtilis; Tetramer by analytical SEC; also called SinR^WT; wildtype SinR; source: E. coli BL21(DE3), purified (Ni-NTA, SEC)
B2: SinR-L99S variant (natural protein, Bacillus subtilis)
chain: T1 chain with L99S
notes: SinR of Bacillus subtilis with L99S, made by two-step PCR mutagenesis of the sinR construct in pET24d; L99S arose spontaneously in the wrinkly isolates (WTWS1, ΔhagWS2) during pellicle growth in the laboratory; the recombinant protein was made by site-directed mutagenesis; Tetramer by analytical SEC; source: E. coli BL21(DE3), purified (Ni-NTA, SEC)
B3: SinI^9-39 peptide (SinI protein from amino acid 9 to 39) (peptide, UniProt P23308 9-39, looked up)
peptide: FELDQEWVELMVEAKEANISPEEIRKYLLLN
notes: SinI, antagonist (anti-repressor) of SinR, Bacillus subtilis, amino acids 9-39; Synthesized with a free amine at the N-terminus and a free acid group at the C-terminus; also called SinI peptide; truncated version of SinI; source: synthetic peptide (peptides&elephants GmbH)
B4: IR-DNA (SinR operator inverted repeat) (dsDNA)
DNA 1: TTTGTTCTCTAAAGAGAACTTA
DNA 2: TAAGTTCTCTTTAGAGAACAAA

Series [1] deals with SinI (Bacillus subtilis) (UniProt P23308). The settings on record: cited from earlier work.
SinI (Bacillus subtilis), sequence (P23308 whole entry): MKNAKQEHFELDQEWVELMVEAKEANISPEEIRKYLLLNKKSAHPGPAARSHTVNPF
Series [2] concerns the molecule itself. The experiment in a line: SEC; analytical SEC, Superdex 200 Increase 10/300 GL; SinR or SinR-L99S alone (tetrameric state also seen with IR-DNA).
For series [3], the target named is T1, SinR (wild type), master repressor of …. The experiment in a line: ITC. In general terms: Isothermal titration calorimetry measures the heat released or taken up as one component is titrated into another.
Series [4] deals with T2, SinR-L99S variant. The experiment in a line: ITC; first site (two-site model).
In series [5] the target is T2, SinR-L99S variant. The series is described as follows: ITC; second site (two-site model).
In series [6] the target is B1. The experiment in a line: ITC; 250 uM SinI 9-39 peptide titrated into 25 uM SinR or SinR-L99S in the cell, 25 °C, buffer C (20 mM HEPES/NaOH, 500 mM NaCl); apparent KD; one-site model for wild type, two-sites model for L99S. The note with it: both partners purified.
For series [7], the target named is B2. The description is as above. The note with it: both partners purified.
Series [8] concerns the target T3, SinR. The experiment in a line: ITC; binding site 1 of two-sites model; N1 = 0.264 +/- 0.0114; ITC: buffer C (20 mM HEPES/NaOH, 500 mM NaCl; pH not stated for buffer C, 8.0 for buffers A/B), 25 °C; 30 µM SinR in cell, 150 µM IR-DNA titrated in. The settings on record: protein: recombinant; tags: C-terminal His6; chain copies: 4; blunt.
In series [9] the target is T3, SinR. The experiment in a line: ITC; binding site 2 of two-sites model; N2 = 0.143 +/- 0.0123; ITC: buffer C (20 mM HEPES/NaOH, 500 mM NaCl; pH not stated for buffer C, 8.0 for buffers A/B), 25 °C; 30 µM SinR in cell, 150 µM IR-DNA titrated in. The note with it: protein: recombinant; tags: C-terminal His6; chain copies: 4; blunt.
Series [10] addresses T4, SinR-L99S. The experiment in a line: ITC; binding site 1 of two-sites model; comparable to wild type; ITC: buffer C (20 mM HEPES/NaOH, 500 mM NaCl; pH not stated for buffer C, 8.0 for buffers A/B), 25 °C; 30 µM SinR in cell, 150 µM IR-DNA titrated in. The note with it: protein: recombinant; tags: C-terminal His6; chain copies: 4; blunt.

Substitutions are numbered along the chain they refer to. In names and notes the source's numbering stands.

The term stoichiometry N denotes the number of molecules, sites or subunits per partner or assembly.

As for SinR (from UniProt P06533), the Kd in series [1] is less than 10 nM.

Turning to B1, the “stoichiometry N” value in series [2] came out at 4.

Regarding B2, in series [2], the “stoichiometry N” value stood at 4.

B3 displayed a Ka in series [3] of 1.41e+08 M⁻¹. For the same molecule, the Ka in [4] turned out to be 6.16e+06 M⁻¹. The Ka in series [5] amounted to 1.75e+06 M⁻¹. In addition, in series [6], the Kd is roughly 7 nM, the dH was -3.75 ± 0.136 kcal/mol and the “stoichiometry N” value amounted to 1.2 ± 0.02. Besides, in series [7], the “KD site 1” value is roughly 162 nM, the “KD site 2” value was roughly 571 nM, the “dH binding event 1” value was -3.93 ± 1.45 kcal/mol and the “dH binding event 2” value is -15.2 kcal/mol. Besides, in [7], the “stoichiometry N” value was roughly 1.35.

On to B4, for which the Kd in series [8] is roughly 121 nM; in series [9] it was roughly 6 nM; in series [10], roughly 99 nM.

The record behind these values is paper PMC6192195, “Hampered motility promotes the evolution of wrinkly phenotype in Bacillus subtilis” (BMC Evolutionary Biology, 2018).
